B2: recombinant human IL-23R/Fc chimera (Fc fusion, UniProt Q5VWK5 24-353, looked up)
chain: GITNINCSGHIWVEPATIFKMGMNISIYCQAAIKNCQPRKLHFYKNGIKERFQITRINKTTARLWYKNFLEPHASMYCTAECPKHFQETLICGKDISSGYPPDIPDEVTCVIYEYSGNMTCTWNAGKLTYIDTKYVVHVKSLETEEEQQYLTSSYINISTDSLQGGKKYLVWVQAANALGMEESKQLQIHLDDIVIPSAAVISRAETINATVPKTIIYWDSQTTIEKVSCEMRYKATTNQTWNVKEFDTNFTYVQQSEFYLEPNIKYVFQVRCQETGKRYWQPWSSLFFHKTPETVPQVTSKAFQHDTWNSGLTVASISTGHLTSDNRGD
notes: range 24-353; bought (R&D Systems Cat. No. 1400-IR-050); also called rhIL23R-Fc; IL-23R/Fc fusion protein; not shown: human IgG1 Fc, residues 100-330

For assay [1], the target named is B2. The experiment in a line: phage display panning, protein A capture.
In assay [2] the target is T1, human IL-23R expressed on the cell surface (human, UniProt Q5VWK5 24-629).
T1 sequence (looked up): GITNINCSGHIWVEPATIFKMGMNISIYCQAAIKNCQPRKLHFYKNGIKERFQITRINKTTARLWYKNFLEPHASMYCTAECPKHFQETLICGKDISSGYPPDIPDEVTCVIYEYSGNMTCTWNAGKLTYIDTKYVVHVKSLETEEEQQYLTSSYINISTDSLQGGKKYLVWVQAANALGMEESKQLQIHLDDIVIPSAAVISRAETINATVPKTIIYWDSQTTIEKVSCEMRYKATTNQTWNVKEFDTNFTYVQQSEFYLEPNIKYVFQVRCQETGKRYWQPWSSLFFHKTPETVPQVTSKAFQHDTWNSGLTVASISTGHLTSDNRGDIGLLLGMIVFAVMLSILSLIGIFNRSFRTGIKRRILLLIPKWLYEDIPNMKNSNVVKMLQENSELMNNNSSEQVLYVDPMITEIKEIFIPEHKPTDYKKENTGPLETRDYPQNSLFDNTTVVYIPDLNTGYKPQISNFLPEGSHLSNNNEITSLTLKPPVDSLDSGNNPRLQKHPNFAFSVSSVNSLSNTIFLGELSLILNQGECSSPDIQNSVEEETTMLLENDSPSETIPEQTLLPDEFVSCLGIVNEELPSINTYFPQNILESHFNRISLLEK
The experiment in a line: cell-based or functional assay.

Assay [3] concerns the target IL-23 receptor on Sprague Dawley rat splenocytes (rat). The experiment in a line: cell-based or functional assay.
Assay [4] addresses B2. The experiment in a line: cell-free competitive ELISA against IL-23 on coated IL-23R-Fc. Background: An ELISA detects its analyte on a solid surface through an enzyme-linked reagent.
For assay [5], the target named is T2, WT IL-23 cytokine (wild type p19 + p40, expressed in 293T cells) (human, UniProt Q9NPF7 20-189; P29460 23-328).
T2 construct: conditioned medium in the ELISAs; purified on HisTALON for the reporter assay; also called isolated WT IL-23 cytokine; not shown: 6xHis tag at the C-terminus
T2 sequence (looked up) 1: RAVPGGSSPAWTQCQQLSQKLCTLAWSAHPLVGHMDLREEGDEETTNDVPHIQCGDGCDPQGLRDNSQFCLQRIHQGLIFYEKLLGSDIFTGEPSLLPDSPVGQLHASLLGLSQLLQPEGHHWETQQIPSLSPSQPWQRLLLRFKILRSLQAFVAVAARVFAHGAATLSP
T2 sequence (looked up) 2: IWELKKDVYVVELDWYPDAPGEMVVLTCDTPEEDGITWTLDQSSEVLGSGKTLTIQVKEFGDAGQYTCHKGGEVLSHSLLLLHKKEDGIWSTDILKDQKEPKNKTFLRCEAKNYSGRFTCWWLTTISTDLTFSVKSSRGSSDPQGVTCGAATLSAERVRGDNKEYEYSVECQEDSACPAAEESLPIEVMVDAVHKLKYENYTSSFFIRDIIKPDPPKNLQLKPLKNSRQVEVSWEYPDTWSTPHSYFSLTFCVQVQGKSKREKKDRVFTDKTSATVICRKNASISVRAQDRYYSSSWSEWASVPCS
The experiment in a line: ELISA of conditioned media on coated IL-23R-Fc, anti-p40 detection.

The target in assay [6] is B2. The assay is described as follows: phage ELISA on coated IL-23R/Fc, anti-M13 detection.
Assay [7] has as its target B2. The experiment in a line: competitive ELISA against IL-23 (50 ng/well) on coated IL-23R-Fc.
The target in assay [8] is T3, recombinant mouse IL-23R-Fc (mouse, UniProt Q8K4B4 24-374, limits assumed).
T3 construct: whole entry named; not shown: Fc part, not described
T3 sequence (looked up): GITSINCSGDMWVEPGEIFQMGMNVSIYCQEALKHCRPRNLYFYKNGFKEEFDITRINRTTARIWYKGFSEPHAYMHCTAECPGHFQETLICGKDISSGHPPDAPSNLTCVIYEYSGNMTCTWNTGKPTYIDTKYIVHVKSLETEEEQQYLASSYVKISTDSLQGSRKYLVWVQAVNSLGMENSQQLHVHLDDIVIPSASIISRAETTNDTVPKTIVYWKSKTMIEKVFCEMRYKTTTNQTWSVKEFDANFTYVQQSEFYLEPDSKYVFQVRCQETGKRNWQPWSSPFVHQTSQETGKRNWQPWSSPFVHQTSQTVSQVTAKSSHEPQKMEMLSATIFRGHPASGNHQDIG
The experiment in a line: competitive ELISA against mouse IL-23 on coated mouse IL-23R-Fc.

The target of assay [9] is B2. The experiment in a line: competitive ELISA on coated IL-23R-Fc, 50 µM peptide.

Bridges are numbered along the chain shown (N, C = ends). Where no end group is shown, it is not given here.

With STWQEYYDVWQK (peptide, not shown: large carriers) [M13 phage displaying polypeptide no. 18], the binding result in assay [1] is “binds”.
With EPFAWHAYWVRN (peptide, not shown: large carriers) [M13 phage displaying polypeptide no. 29], the binding result in assay [1] is “binds”.

B1: cyclic peptide no. 2HT AA (peptide)
peptide: AKMTWVDYWLKNCA
modifications: cyclic: head-to-tail amide bond (alanine to alanine)
notes: cyclised form of linear peptide no; also called cyclic polypeptide no; 2HT AA (Head to Tail: Alanine to Alanine)
For the molecule B1, in assay [2], the “IC50, IL-17F production (ELISA) in differentiated human Th17 cells, 1 ng/ml IL-23” value came to 0.339 µM; the “IC50, IL-22 production (ELISA) in human PBMC, 2 ng/ml IL-23” value stood at 0.338 µM; the “IC50, cell-based DB-Luc assay” value is 0.342 µM. The “IC50, IL-17F mRNA (qRT-PCR) in rat splenocytes, 200 ng/ml IL-23” value in [3] stood at 0.27 µM. Further, in assay [4], the IC50 (in general, the concentration at which inhibition is half-maximal) was found to be 0.0081 µM.
With B2, in assay [5], the binding result was “binds”.
TENWWTMVPRWM (peptide, not shown: large carriers) [M13 phage displaying polypeptide no. 2]: in [1], the binding result was “binds”.
Same read-out and setting: next, NWIDWWTQSEKH (peptide, not shown: large carriers) [M13 phage displaying polypeptide no. 19]: “binds”.
Take QSDTWMTYWKHH (peptide, not shown: large carriers) [M13 phage displaying polypeptide no. 7]: the binding result in assay [6] is on record as “binds”.
On the same count and under the same terms, with NWTSQLHTGIST (peptide, not shown: large carriers, also called nos) [M13 phage displaying polypeptide no. 5] the entry was “binds”.
Consider DDWMQYWRQQVR [synthetic polypeptide no. 27], for which the IC50 in [7] was about 1.56 µM.
As to AMTWEDWWLYGR (also called peptide number 23) [synthetic polypeptide no. 23], the IC50 in [7] was in the range of 0 to 1.56 µM.
Turning to HDWQTYWVTRER (peptide, not shown: large carriers) [M13 phage displaying polypeptide no. 30], the binding result in assay [1] is given as “binds”.
As to AETPSWYNYWMN (peptide, not shown: large carriers, also called nos) [M13 phage displaying polypeptide no. 4], the binding result in assay [6] was “binds”.
In the case of TSWQSFWHHHNT (peptide, not shown: large carriers) [M13 phage displaying polypeptide no. 32], the binding result in [1] was “binds”.
Still for that read-out and setting: next, AVWQNYWNEQLY (peptide, not shown: large carriers) [M13 phage displaying polypeptide no. 22]: “binds”.
On the same count and under the same terms, with AWQDVWKMHNKV (peptide, not shown: large carriers) [M13 phage displaying polypeptide no. 25] the entry was “binds”.
Still for that read-out and setting: with YSWEWYATRFVQ (peptide, not shown: large carriers) [M13 phage displaying polypeptide no. 13] the entry was “binds”.
On to SALSWEHYWRKH (peptide, not shown: large carriers, also called no) [M13 phage displaying polypeptide no. 20], for which the binding result in [1] is “binds”.
Regarding SGASWVQYWVQR (also called peptide number 1) [synthetic polypeptide no. 1], in [7], the concentration for half-maximal inhibition (IC50) is 6.25 to 12.5 µM. Further, in assay [2], the “relative level of p-STAT3/STAT3 at 50 µM peptide” value is about 0.6 ratio; the “relative level of p-STAT3/STAT3 at 100 µM peptide” value is about 0.3 ratio; the “relative p-STAT3/STAT3 level at 10 µM, 5 µM and 1 µM peptide” value was over 1.5 ratio.
On to DQERWLSYFLGT (peptide, not shown: large carriers) [M13 phage displaying polypeptide no. 3], for which, in assay [1], the binding result is “binds”.
For NWATYWQLRHQT (also called peptide number 9) [synthetic polypeptide no. 9], the IC50 in assay [7] was about 3 µM.
Turning to CAMTWQDYWLYGRC (disulfide 1-14, also called cyc23.15) [cyclic polypeptide no. 23.19], the IC50 in assay [8] was found to be 12.5 µM. The “IC50, DB STAT3-Luc reporter cells, 50 ng/ml IL-23” value in [2] turned out to be 2.5 µM.
In the case of MPDWHAFYLQAQ (peptide, not shown: large carriers) [M13 phage displaying polypeptide no. 6], the binding result in assay [6] is reported as “binds”.
Consider DSDWRWFWENHW (peptide, not shown: large carriers) [M13 phage displaying polypeptide no. 15], for which the binding result in assay [1] was “binds”.

B3: recombinant human IL-23 (ligand)
chain 1: RAVPGGSSPAWTQCQQLSQKLCTLAWSAHPLVGHMDLREEGDEETTNDVPHIQCGDGCDPQGLRDNSQFCLQRIHQGLIFYEKLLGSDIFTGEPSLLPDSPVGQLHASLLGLSQLLQPEGHHWETQQIPSLSPSQPWQRLLLRFKILRSLQAFVAVAARVFAHGAATLSP
chain 2: IWELKKDVYVVELDWYPDAPGEMVVLTCDTPEEDGITWTLDQSSEVLGSGKTLTIQVKEFGDAGQYTCHKGGEVLSHSLLLLHKKEDGIWSTDILKDQKEPKNKTFLRCEAKNYSGRFTCWWLTTISTDLTFSVKSSRGSSDPQGVTCGAATLSAERVRGDNKEYEYSVECQEDSACPAAEESLPIEVMVDAVHKLKYENYTSSFFIRDIIKPDPPKNLQLKPLKNSRQVEVSWEYPDTWSTPHSYFSLTFCVQVQGKSKREKKDRVFTDKTSATVICRKNASISVRAQDRYYSSSWSEWASVPCS
As for B3, the “reporter luciferase activity, DB STAT3-Luc cells, 50 ng/ml” value in assay [2] was about 10 fold.
Take SGASFVQYWVQR [modified synthetic polypeptide no. 1.1]: in assay [9], the “OD450 of bound IL-23 with the peptide as competitor” value was at least 0.4 OD450.
On the same count and under the same terms, with SGASFVQYFVQR [modified synthetic polypeptide no. 1.3] the figure was at least 0.4 OD450.
Same read-out and setting: with SGASWVQYFVQR [modified synthetic polypeptide no. 1.2] the figure was at least 0.4 OD450.
As for ASWEMYWATSYN (peptide, not shown: large carriers) [M13 phage displaying polypeptide no. 10], in assay [6], the binding result is on record as “binds”.

For the origin of these results see patent USRE49026 (MEDICAL DIAGNOSTIC LABORATORIES, dated 2022).
